From US20170306036A1 (ENGMAB, published 2017) come the findings set out here.

In assay [1] the target is T1, human BCMA on human myeloma cells (H929, L363, RPMI-8226, JJN-3, patient myeloma plasma cells) (human, UniProt Q02223 1-184).
T1 sequence (looked up): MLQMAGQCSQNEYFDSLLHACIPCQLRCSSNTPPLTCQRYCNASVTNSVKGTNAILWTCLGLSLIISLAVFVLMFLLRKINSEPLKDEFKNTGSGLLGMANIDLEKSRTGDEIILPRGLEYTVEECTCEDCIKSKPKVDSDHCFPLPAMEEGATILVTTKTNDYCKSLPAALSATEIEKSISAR

The target of assay [2] is T2, human BCMA stably expressed on HEK293T cells (huBCMA-HEK293T) (human, UniProt Q02223 1-184).
T2 sequence (looked up): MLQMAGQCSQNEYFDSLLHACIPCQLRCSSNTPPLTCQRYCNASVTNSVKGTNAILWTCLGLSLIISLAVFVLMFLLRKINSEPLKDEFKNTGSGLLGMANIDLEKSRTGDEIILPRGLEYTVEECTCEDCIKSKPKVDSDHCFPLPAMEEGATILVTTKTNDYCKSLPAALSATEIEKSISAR

Assay [3] addresses T3, cynomolgus BCMA stably expressed on HEK293T cells (cynoBCMA-HEK293T) (cynomolgus, UniProt A0A2K5UD97 1-183).
Assay [4] concerns the target T3, cynomolgus BCMA stably expressed on …. Description: cell-based or functional assay.
The target in assay [5] is T1, human BCMA on human myeloma cells …. Put plainly: cell-based or functional assay.
Assay [6] has the same target. Put plainly: cell-based or functional assay. The source holds these as a separate data set.
The target in assay [7] is T4, human CD3ε on Jurkat T cells (human, UniProt P07766 23-207).
T4 construct: whole, on cells; On cells it is part of the TCR/CD3 complex; also called CD3-positive Jurkat T cells
T4 sequence (P07766 23-207): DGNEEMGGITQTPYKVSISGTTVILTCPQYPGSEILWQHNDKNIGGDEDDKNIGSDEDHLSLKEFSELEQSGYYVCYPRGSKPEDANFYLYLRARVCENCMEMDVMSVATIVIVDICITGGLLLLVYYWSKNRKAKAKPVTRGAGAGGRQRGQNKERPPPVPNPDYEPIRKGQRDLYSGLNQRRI
Description: flow cytometry on CD3-positive Jurkat T cells. On the procedure:
Jurkat T cells were cultured in RPMI supplemented with 10% heat-inactivated FCS. Briefly, cultured cells were harvested, counted and cell viability was evaluated using ViCell. Viable cells were then adjusted to 2×10⁶ cells per ml in FACS Stain Buffer (BD Biosciences) containing 0.1% BSA. 100 μl of this cell suspension were further aliquoted per well into a round-bottom 96-well plate. 30 μl of the anti-BCMA/anti-CD3 TCB antibodies or corresponding IgG control were added to the cell-containing wells to obtain final concentrations of 3 nM to 500 nM or 0.1 pM to 200 nM. Anti-BCMA/anti-CD3 TCB antibodies and control IgG were used at the same molarity. After incubation for 30 min at 4° C., cells were centrifuged (5 min, 350×g), washed twice with 150 μl/well BSA-containing FACS Stain Buffer (BD Biosciences), then cells were fixed using 100 ul BD Fixation buffer per well (#BD Biosciences, 554655) at 4° C. for 20 min, resuspended in 120 μl FACS buffer and analyzed using BD FACS Cantoll. Binding of the anti-BCMA/anti-CD3 TCB antibodies to T cells were evaluated and the median fluorescence intensity was determined gated on CD3-expressing Jurkat T cells and plotted in histograms or dot plots.

Assay [8] deals with T1, human BCMA on human myeloma cells …. Description: cell-based or functional assay. This is another data set of the same source.
Assay [9] has as its target T5, recombinant human BCMA Fc(kih) (human, UniProt Q02223 4-53, biotinylated at the avi-tag at the C-terminus of the Fc knob chain ; Biotinylated in vivo (BirA) at the avi-tag at the C-terminus of the Fc knob chain. That part is not in the letters.).
T5 construct: Monomeric Fc fusion made by knobs-into-holes; also called huBCMA Fc(kih); biotinylated human BCMA; not shown: Human IgG1 hinge-Fc knob chain with C-terminal avi-tag, and the unfused human IgG1 Fc hole chain
Description: SPR (Biacore T200, 25 C), IgG captured on anti-human Fab chip, BCMA Fc(kih) as analyte, 1:1 Langmuir fit. On the procedure: The affinity of the interaction between anti-BCMA antibodies and recombinant human BCMA Fc(kih) was also determined. Anti-human Fab antibody (GE Healthcare) was directly coupled on a CMS chip at pH 5.0 using the standard amine coupling kit (Biacore, Freiburg/Germany). The immobilization level was about 6500 RU. […] Recombinant human BCMA Fc(kih) was passed at a […] concentration range (1.95 to 500 nM) with a flow of 30 μL/minutes through the flow cells over 120 seconds. The dissociation was monitored for 120 seconds. Bulk refractive index differences were corrected for by subtracting the response obtained on reference flow cell. […] Kinetic constants were derived using the Biacore T100 Evaluation Software (vAA, Biacore AB, Uppsala/Sweden), to fit rate equations for 1:1 Langmuir binding by numerical integration (Table 7).
On the technique in general: SPR reads the build-up and loss of mass on a sensor chip optically.

In assay [10] the target is T5, recombinant human BCMA Fc(kih). Description: SPR (ProteOn XPR36, 25 C), biotinylated BCMA Fc(kih) on NLC chip, Fab as analyte, monovalent affinity. On the procedure: Buffer (PBST) was injected along the sixth channel to provide an “in-line” blank for referencing. Association rate constants (kon) and dissociation rate constants (koff) were calculated using a simple one-to-one Langmuir binding model in ProteOn Manager v3.1 software by simultaneously fitting the association and dissociation sensorgrams. The equilibrium dissociation constant (KD) was calculated as the ratio koff/kon.

For assay [11] the target is unchanged. Put plainly: competition ELISA: 500 or 1000 nM Fab on plate-bound biotinylated human BCMA; competitor murine APRIL 50 nM/1200 ng/mL; bound Fab read as OD450. On the procedure: 500 nM or 1000 nM purified Fabs were added to saturate the coated human BCMA for 1 h at room temperature. […] The plate was washed 3 times with PBS and anti-FLAG-HRP secondary antibody (1:4000) was added for 1 h. Again, the plate was washed 3 times with PBS and developed by adding 100 ul/well BM Blue POD (Roche). The reaction was stopped by adding 50 ul/well 1M H₂SO₄ and the OD was read at 450 nm (reference at 650 nm) for a final read-out of OD₄₅₀₋₆₅₀.
(In general: ELISA stands for enzyme-linked immunosorbent assay.)

Several values for one entry are separate records, joined by “and”; a condition that tells them apart may be missing. Equal values may be shown once.

T3 sequence (A0A2K5UD97 entry or part of it): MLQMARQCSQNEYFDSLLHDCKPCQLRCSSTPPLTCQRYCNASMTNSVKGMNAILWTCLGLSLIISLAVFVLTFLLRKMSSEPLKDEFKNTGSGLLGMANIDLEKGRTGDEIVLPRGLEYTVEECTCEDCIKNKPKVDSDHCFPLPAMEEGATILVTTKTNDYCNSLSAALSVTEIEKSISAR

B1: 83A10-TCBcv (anti-BCMA/anti-CD3 T cell bispecific antibody, 2+1 Fc-containing, with charge variant) (bispecific antibody, human IgG1, kappa, L234A L235A)
heavy 1: not shown
heavy 2: not shown
light 1: EVQLLESGGGLVQPGGSLRLSCAASGFTFSTYAMNWVRQAPGKGLEWVSRIRSKYNNYATYYADSVKGRFTISRDDSKNTLYLQMNSLRAEDTAVYYCVRHGNFGNSYVSWFAYWGQGTLVTVSSASVAAPSVFIFPPSDEQLKSGTASVVCLLNNFYPREAKVQWKVDNALQSGNSQESVTEQDSKDSTYSLSSTLTLSKADYEKHKVYACEVTHQGLSSPVTKSFNRGEC
light 2: not shown
notes: also called 83A10-TCVcv
For B1, the EC50 (commonly the midpoint of the concentration-response curve) in [1] is ~17.4 nM and ~2.51 µg/mL. The EC50 in [2] came to 15.6 nM. The same molecule had an EC50 in [3] of 7.8 nM. In addition, in [4], the “EC50 of lysis of cynoBCMA-HEK cells (LDH release), cyno PBMCs donor 1” value was 0.0035 nM; the “EC50 of lysis of cynoBCMA-HEK cells (LDH release), cyno PBMCs donor 2” value was 0.0027 nM; the “mean EC50 of lysis of cynoBCMA-HEK cells (LDH release)” value was 0.0031 nM. In assay [5], the “EC50 of Granzyme B secretion, PBMC + RPMI-8226 cells (CBA)” value was 0.34 nM; the “EC50 of IL-10 secretion, PBMC + RPMI-8226 cells (CBA)” value was 0.3 nM; the “EC50 of TNF-α secretion, PBMC + RPMI-8226 cells (CBA)” value came to 0.52 nM. Besides, in [6], the “EC50 of redirected T-cell killing of RPMI-8226 cells (LDH release), Donor 2” value is 0.621 nM; the “EC50 of redirected T-cell killing of RPMI-8226 cells (LDH release), Donor 3” value was determined as 0.229 nM; the “EC50 of redirected T-cell killing of RPMI-8226 cells (LDH release), Donor 4” value was 0.035 nM; the “EC50 of redirected T-cell killing of RPMI-8226 cells (LDH release), Donor 5” value was 0.0649 nM. Further, the binding result in assay [7] is reported as “binds”. In [8], the “EC50 for reduction of viable (annexin-V negative) myeloma plasma cells, bone marrow aspirate Patient 001” value was 1 nM; the “EC50 for reduction of viable (annexin-V negative) myeloma plasma cells, bone marrow aspirate Patient 002” value came out at 8.24 nM; the “EC50 for reduction of viable (annexin-V negative) myeloma plasma cells, bone marrow aspirate Patient 003” value turned out to be 8.02 nM.

B2: 17A5-TCBcv (anti-BCMA/anti-CD3 T cell bispecific antibody, 2+1 Fc-containing, with charge variant) (bispecific antibody, human IgG1, kappa, L234A L235A)
heavy 1: not shown
heavy 2: not shown
light 1: EVQLLESGGGLVQPGGSLRLSCAASGFTFSTYAMNWVRQAPGKGLEWVSRIRSKYNNYATYYADSVKGRFTISRDDSKNTLYLQMNSLRAEDTAVYYCVRHGNFGNSYVSWFAYWGQGTLVTVSSASVAAPSVFIFPPSDEQLKSGTASVVCLLNNFYPREAKVQWKVDNALQSGNSQESVTEQDSKDSTYSLSSTLTLSKADYEKHKVYACEVTHQGLSSPVTKSFNRGEC
light 2: not shown
B2: in assay [7], the binding result is given as “binds”.

B3: 13A4 anti-BCMA IgG (antibody, V domains shown)
VH: EVQLVQSGAEVKKPGESLKISCKGSGYSFTSYWIGWVRQMPGKGLEWMGIIYPGDSDTRYSPSFQGQVTISADKSISTAYLQWSSLKASDTAMYYCARNGYLGDYWGQGTLVTVSS
VL: not shown
notes: also called anti-BCMA antibody clone 13A4; MAB 13A4
As to B3, in assay [9], the equilibrium dissociation constant (Kd) – broadly, the equilibrium constant for the complex coming apart – came out at 5.1 nM; the koff (commonly a measure of how fast the partners let go of each other) was determined as 0.00036 s⁻¹; the kon (in general, the second-order rate constant of association) turned out to be 72000 M⁻¹ s⁻¹.

B4: anti-BCMA Fab clone 13A4 (Fab, V domains shown)
VH: EVQLVQSGAEVKKPGESLKISCKGSGYSFTSYWIGWVRQMPGKGLEWMGIIYPGDSDTRYSPSFQGQVTISADKSISTAYLQWSSLKASDTAMYYCARNGYLGDYWGQGTLVTVSS
VL: not shown
notes: Phage-display Fab (Vk2D_28/VH5_1), bacterially expressed
As for B4, in assay [10], the Kd was 1.8 nM. For the same molecule, the “reduction in OD (450 nm) in absence vs. presence of murine Δ-APRIL” value in assay [11] worked out at 13.1%.
